Assays:
HeLa Kyoto [1] = test: solubility change mitosis vs G1/S (difference of NP-40 vs SDS log2 ratios) (log2 ratio difference); higher = more soluble in mitosis
HeLa Kyoto [2] = test: thermal stability score vs G1/S (z-score of summed log2 fold changes over temperatures); higher = more thermally stable than in G1/S
HeLa Kyoto [3] = test: melting temperature (median over replicates), in situ; higher = more thermally stable
HeLa Kyoto [4] = test: solubility in G1/S (NP-40 vs SDS abundance) (log2 ratio); higher = more soluble; details: cell cycle stage: G1/S
[5] = cell cycle stage: early G1 (4.5 h after nocodazole release)
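Wherever melting temperature (median over replicates), in situ is given: HeLa Kyoto cells synchronized by double thymidine or nocodazole block, proteins quantified by TMT10plex mass spectrometry, three independent biological replicates.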
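Wherever solubility change mitosis vs G1/S (difference of NP-40 vs SDS log2 ratios) is given: synchronized HeLa Kyoto cells (double thymidine block for G1/S, nocodazole release for mitosis), protein amounts in NP-40 versus SDS lysates quantified by mass spectrometry, three biological replicates.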
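Wherever solubility in G1/S (NP-40 vs SDS abundance) is given: HeLa Kyoto cells arrested at G1/S by double thymidine block, proteins quantified by TMT10plex mass spectrometry in mild NP-40 versus SDS extracts, three biological replicates.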
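Wherever thermal stability score vs G1/S (z-score of summed log2 fold changes over temperatures) is given: synchronized HeLa Kyoto cells, proteins quantified by TMT10plex mass spectrometry, three biological replicates, mitosis taken 0.5 h after nocodazole release, G1/S directly after double thymidine block.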

MPAERKKPASMEEKDSLPNNKEKDCSERRTVSSKERPKDDIKLTAKKEVSKAPEDKKKRLEDDKRKKEDKERKKKDEEKVKAEEESKKKEEEEKKKHQEEERKKQEEQAKRQQEEEAAAQMKEKEESIQLHQEAWERHHLRKELRSKNQNAPDSRPEENFFSRLDSSLKKNTAFVKKLKTITEQQRDSLSHDFNGLNLSKYIAEAVASIVEAKLKISDVNCAVHLCSLFHQRYADFAPSLLQVWKKHFEARKEEKTPNITKLRTDLRFIAELTIVGIFTDKEGLSLIYEQLKNIINADRESHTHVSVVISFCRHCGDDIAGLVPRKVKSAAEKFNLSFPPSEIISPEKQQPFQNLLKEYFTSLTKHLKRDHRELQNTERQNRRILHSKGELSEDRHKQYEEFAMSYQKLLANSQSLADLLDENMPDLPQDKPTPEEHGPGIDIFTPGKPGEYDLEGGIWEDEDARNFYENLIDLKAFVPAILFKDNEKSCQNKESNKDDTKEAKESKENKEVSSPDDLELELENLEINDDTLELEGGDEAEDLTKKLLDEQEQEDEEASTGSHLKLIVDAFLQQLPNCVNRDLIDKAAMDFCMNMNTKANRKKLVRALFIVPRQRLDLLPFYARLVATLHPCMSDVAEDLCSMLRGDFRFHVRKKDQINIETKNKTVRFIGELTKFKMFTKNDTLHCLKMLLSDFSHHHIEMACTLLETCGRFLFRSPESHLRTSVLLEQMMRKKQAMHLDARYVTMVENAYYYCNPPPAEKTVKKKRPPLQEYVRKLLYKDLSKVTTEKVLRQMRKLPWQDQEVKDYVICCMINIWNVKYNSIHCVANLLAGLVLYQEDVGIHVVDGVLEDIRLGMEVNQPKFNQRRISSAKFLGELYNYRMVESAVIFRTLYSFTSFGVNPDGSPSSLDPPEHLFRIRLVCTILDTCGQYFDRGSSKRKLDCFLVYFQRYVWWKKSLEVWTKDHPFPIDIDYMISDTLELLRPKIKLCNSLEESIRQVQDLEREFLIKLGLVNDKDSKDSMTEGENLEEDEEEEEGGAETEEQSGNESEVNEPEEEEGSDNDDDEGEEEEEENTDYLTDSNKENETDEENTEVMIKGGGLKHVPCVEDEDFIQALDKMMLENLQQRSGESVKVHQLDVAIPLHLKSQLRKGPPLGGGEGEAESADTMPFVMLTRKGNKQQFKILNVPMSSQLAANHWNQQQAEQEERMRMKKLTLDINERQEQEDYQEMLQSLAQRPAPANTNRERRPRYQHPKGAPNADLIFKTGGRRR [UPF2]
solubility change mitosis (log2) (HeLa Kyoto [1]): -0.109 | thermal stability score (HeLa Kyoto [2]; [5]): -0.603 | thermal stability score (HeLa Kyoto [2]; cell cycle stage: mitosis): -0.161 | melting temperature (HeLa Kyoto [3]; cell cycle stage: G1/S): 49.6 °C | melting temperature (HeLa Kyoto [3]; cell cycle stage: mitosis): 49.7 °C | solubility in G1/S (log2) (HeLa Kyoto [4]): -0.245

MPAPIRLRELIRTIRTARTQAEEREMIQKECAAIRSSFREEDNTYRCRNVAKLLYMHMLGYPAHFGQLECLKLIASQKFTDKRIGYLGAMLLLDERQDVHLLMTNCIKNDLNHSTQFVQGLALCTLGCMGSSEMCRDLAGEVEKLLKTSNSYLRKKAALCAVHVIRKVPELMEMFLPATKNLLNEKNHGVLHTSVVLLTEMCERSPDMLAHFRKLVPQLVRILKNLIMSGYSPEHDVSGISDPFLQVRILRLLRILGRNDDDSSEAMNDILAQVATNTETSKNVGNAILYETVLTIMDIKSESGLRVLAINILGRFLLNNDKNIRYVALTSLLKTVQTDHNAVQRHRSTIVDCLKDLDVSIKRRAMELSFALVNGNNIRGMMKELLYFLDSCEPEFKADCASGIFLAAEKYAPSKRWHIDTIMRVLTTAGSYVRDDAVPNLIQLITNSVEMHAYTVQRLYKAILGDYSQQPLVQVAAWCIGEYGDLLVSGQCEEEEPIQVTEDEVLDILESVLISNMSTSVTRGYALTAIMKLSTRFTCTVNRIKKVVSIYGSSIDVELQQRAVEYNALFKKYDHMRSALLERMPVMEKVTTNGPTEIVQTNGETEPAPLETKPPPSGPQPTSQANDLLDLLGGNDITPVIPTAPTSKPSSAGGELLDLLGDINLTGAPAAAPAPASVPQISQPPFLLDGLSSQPLFNDIAAGIPSITAYSKNGLKIEFTFERSNTNPSVTVITIQASNSTELDMTDFVFQAAVPKTFQLQLLSPSSSIVPAFNTGTITQVIKVLNPQKQQLRMRIKLTYNHKGSAMQDLAEVNNFPPQSWQ [AP1G1]
solubility change mitosis (log2) (HeLa Kyoto [1]): -0.192 | thermal stability score (HeLa Kyoto [2]; [5]): -1.48 | thermal stability score (HeLa Kyoto [2]; cell cycle stage: mitosis): 0.274 | melting temperature (HeLa Kyoto [3]; cell cycle stage: G1/S): 50.3 °C | melting temperature (HeLa Kyoto [3]; cell cycle stage: mitosis): 50.1 °C | solubility in G1/S (log2) (HeLa Kyoto [4]): -0.225

— the supplement of paper PMC5998384
